Measured values taken from patent publication EP4682169A1 (Gracell Biotechnologies (Shanghai) Co., Ltd., dated 2026).
Positions count from the first letter of the chain named. Several values for one entry are separate records, joined by “and”; a condition that tells them apart may be missing. Equal entries are not always repeated.

Experiments:
[1] = biological target: T1, Claudin18.2 recombinant protein (His tag) (UniProt P56856-2 1-261, limits assumed); test: ELISA, coated antigen 200 ng/well; antibody 100 ug/mL (so in the source)
T1 construct: also called Claudin18.2-his antigen; not shown: His tag

Claudin 18.2 VLP [2] = biological target: T2, Claudin 18.2 VLP (UniProt P56856 1-261); test: as above
T2 construct: Antigen coated on ELISA plates, 200 ng/well; source and construct not described; also called Claudin18.2-VLP protein; Claudin18.2 VLP antigen

[3] = biological target: T1, Claudin18.2 recombinant protein (His …); test: ELISA, coated antigen 200 ng/well; antibody 0.123 ug/mL
Claudin 18.2 VLP [4] = biological target: T2, Claudin 18.2 VLP; test: as above
[5] = biological target: T1, Claudin18.2 recombinant protein (His …); test: ELISA, coated antigen 200 ng/well; antibody 3.333 ug/mL
Claudin 18.2 VLP [6] = biological target: T2, Claudin 18.2 VLP; test: as above
[7] = biological target: T1, Claudin18.2 recombinant protein (His …); test: ELISA, coated antigen 200 ng/well; antibody 0.041 ug/mL
Claudin 18.2 VLP [8] = biological target: T2, Claudin 18.2 VLP; test: as above
[9] = biological target: T1, Claudin18.2 recombinant protein (His …); test: ELISA, coated antigen 200 ng/well; antibody 0.014 ug/mL
Claudin 18.2 VLP [10] = biological target: T2, Claudin 18.2 VLP; test: as above
Claudin 18.2 VLP [11] = biological target: T2, Claudin 18.2 VLP; test: ELISA, coated antigen; lower end, tied by Table 3 to 10-hIgG1Fc on the VLP (4.96 nM)
[12] = biological target: T1, Claudin18.2 recombinant protein (His …); test: ELISA, coated antigen 200 ng/well; antibody 0 ug/mL (blank well, background)
Claudin 18.2 VLP [13] = biological target: T2, Claudin 18.2 VLP; test: as above
[14] = biological target: T1, Claudin18.2 recombinant protein (His …); test: ELISA, coated antigen 200 ng/well; antibody 1.111 ug/mL
Claudin 18.2 VLP [15] = biological target: T2, Claudin 18.2 VLP; test: as above
[16] = biological target: T1, Claudin18.2 recombinant protein (His …); test: ELISA, coated antigen 200 ng/well; antibody 0.37 ug/mL
Claudin 18.2 VLP [17] = biological target: T2, Claudin 18.2 VLP; test: as above
[18] = biological target: T1, Claudin18.2 recombinant protein (His …); test: ELISA, coated antigen 200 ng/well
Claudin 18.2 VLP [19] = biological target: T2, Claudin 18.2 VLP; test: ELISA, coated antigen 200 ng/well
[20] = biological target: T3, Human Claudin-18.2 protein (human, UniProt P56856-2 1-261, limits assumed); test: SPR (Biacore 8K), antibody captured on Protein A, Claudin-18.2 protein as analyte
T3 construct: Soluble analyte injected over captured antibodies in SPR

[21] = biological target: T4, human Claudin18.2 expressed on cells (human, UniProt P56856-2 1-261); test: flow cytometry on 293FT CLDN18.2-Luc cells, APC anti-mouse IgG Fc
T4 construct: whole, on cells; also called CLDN18.2

[22] = biological target: T4, human Claudin18.2 expressed on cells; test: phage flow cytometry, phage supernatant, PE anti-M13
[23] = biological target: T1, Claudin18.2 recombinant protein (His …); test: ELISA, coated antigen; upper end, tied by Table 3 to 1-hIgG1Fc on Claudin 18.2-his (196 nM)

B1: 10-hIgG1Fc (Fc fusion)
chain: QVQLAESGGGLVQPGGSLRLSCAASGNILSINYMGWYRQAPGKERELVATITRGGTTNYQGDLKGRFIISGDNTKDTVYLQMNNLQPEDTAVYYCYFRINFGILGGLRDYWGQGTQVTVSS
notes: VHH-hIgG1Fc recombinant antibody; also called 10-hlgG1Fc; VHH-hIgG1Fc recombinant antibody of clone 10; not shown: human IgG1 Fc (hIgG1Fc)
absorbance at 450 nm [1]: 3.38 | absorbance at 450 nm (Claudin 18.2 VLP [2]): 2.62 | absorbance at 450 nm [3]: 0.172 | absorbance at 450 nm (Claudin 18.2 VLP [4]): 0.568 | absorbance at 450 nm [5]: 2.15 | absorbance at 450 nm (Claudin 18.2 VLP [6]): 2.51 | absorbance at 450 nm [7]: 0.084 | absorbance at 450 nm (Claudin 18.2 VLP [8]): 0.355 | absorbance at 450 nm [9]: 0.063 | absorbance at 450 nm (Claudin 18.2 VLP [10]): 0.329 | EC50 (Claudin 18.2 VLP [11]): 4 nM | absorbance at 450 nm [12]: 0.054 | absorbance at 450 nm (Claudin 18.2 VLP [13]): 0.311 | absorbance at 450 nm [14]: 1.06 | absorbance at 450 nm (Claudin 18.2 VLP [15]): 2.14 | absorbance at 450 nm [16]: 0.476 | absorbance at 450 nm (Claudin 18.2 VLP [17]): 1.46 | EC50 [18]: 4 µg/mL and 50 nM | EC50 (Claudin 18.2 VLP [19]): 0.4 µg/mL and 4.96 nM

B2: 2-mIgG2aFc (Fc fusion)
chain: B1 chain with Q1E, A5V, T56S, D62N
notes: Fusion antibody anti-Claudin18.2 VHH-mIgG2aFc; also called 2-mIgG Fc; 2-mlgG2a Fc; not shown: mouse IgG2a Fc (mIgG2aFc)
Kd [20]: 1.1 nM | koff [20]: 0.00052 s⁻¹ | kon [20]: 471000 M⁻¹ s⁻¹ | EC50 [21]: 0.02 nM

B3: VHH clone 3 (phage-displayed) (VHH)
VHH: QVQLVESGGGLVQAGDSVRLSCAASGQTLSNYNVAWFRQAPGKEREFVAGATWSGRITNYSDSVRGRFTISRDNAKNTVYLQMNSLGPGDTAVYHCAANSFQLGDKPGDYHYWGQGTQVTVSS
notes: Tested as phage supernatant, detected with PE anti-M13; also called Clone ID 3
binding result [22]: binds

B4: 8-hIgG1Fc (Fc fusion)
chain: QVQLVESGGGLVQPGGSLRLSCAASGSIFGLNFMGWWRQAPGSQRELVAIATSGGSIQYGDSVKGRFTISRDNAKNTVYLQMASLKPEDTAVYYCNVHTYDFLGRDYWGQGTQVTVSL
notes: VHH-hIgG1Fc recombinant antibody; also called 8-hlgG1 Fc; VHH-hIgG1Fc recombinant antibody of clone 8; not shown: human IgG1 Fc (hIgG1Fc)
absorbance at 450 nm (Claudin 18.2 VLP [2]): 2.46 | absorbance at 450 nm (Claudin 18.2 VLP [4]): 0.474 | absorbance at 450 nm (Claudin 18.2 VLP [6]): 2.1 | absorbance at 450 nm (Claudin 18.2 VLP [8]): 0.337 | absorbance at 450 nm (Claudin 18.2 VLP [10]): 0.326 | absorbance at 450 nm (Claudin 18.2 VLP [13]): 0.289 | absorbance at 450 nm (Claudin 18.2 VLP [15]): 1.87 | absorbance at 450 nm (Claudin 18.2 VLP [17]): 0.931 | EC50 (Claudin 18.2 VLP [19]): 0.61 µg/mL and 7.66 nM

B5: VHH clone 9 (phage-displayed) (VHH)
VHH: B4 chain with Q1E, S84N
notes: Tested as phage supernatant, detected with PE anti-M13; also called Clone ID 9
binding result [22]: binds

B6: 5-mIgG2aFc (Fc fusion)
chain: QVQLVESGGGLVQTGGSLRLSCAASDSTFSSYIMGWFRQAPGKEREFVAGITWSGGIKDYADSVKGRFTIARDNAKNTVYLQMNSLKPEDAAIYYCAANAIQLTRRSGDYAYWGQGTQVTVSS
notes: Fusion antibody anti-Claudin18.2 VHH-mIgG2aFc; also called 5-mIgG Fc; 5-mlgG2a Fc; not shown: mouse IgG2a Fc (mIgG2aFc)
Kd [20]: 3.02 nM | koff [20]: 0.000373 s⁻¹ | kon [20]: 123000 M⁻¹ s⁻¹ | EC50 [21]: 0.013 nM

B7: 5-hIgG1Fc (Fc fusion)
chain: B6 chain
notes: VHH-hIgG1Fc recombinant antibody; also called 5-hlgG1Fc; VHH-hIgG1Fc recombinant antibody of clone 5; not shown: human IgG1 Fc (hIgG1Fc)
absorbance at 450 nm (Claudin 18.2 VLP [2]): 2.35 | absorbance at 450 nm [3]: 0.463 | absorbance at 450 nm (Claudin 18.2 VLP [4]): 0.39 | absorbance at 450 nm [5]: 3.5 | absorbance at 450 nm (Claudin 18.2 VLP [6]): 2.14 | absorbance at 450 nm [7]: 0.207 | absorbance at 450 nm (Claudin 18.2 VLP [8]): 0.275 | absorbance at 450 nm [9]: 0.108 | absorbance at 450 nm (Claudin 18.2 VLP [10]): 0.274 | absorbance at 450 nm [12]: 0.057 | absorbance at 450 nm (Claudin 18.2 VLP [13]): 0.247 | absorbance at 450 nm [14]: 2.53 | absorbance at 450 nm (Claudin 18.2 VLP [15]): 1.86 | absorbance at 450 nm [16]: 1.41 | absorbance at 450 nm (Claudin 18.2 VLP [17]): 0.942 | EC50 [18]: 0.81 µg/mL and 10.1 nM | EC50 (Claudin 18.2 VLP [19]): 0.55 µg/mL and 6.87 nM

B8: 5H1-mIgG Fc (Fc fusion)
chain: B6 chain with F37V, E44G, R45L, F47W
notes: Subclass printed only as mIgG Fc for this one; also called 5H1-mlgG Fc; H1-mlgG Fc; not shown: mouse IgG Fc (printed mIgG Fc)
Kd [20]: 7.21 nM | koff [20]: 0.000552 s⁻¹ | kon [20]: 76600 M⁻¹ s⁻¹

B9: 5H2-mIgG2a Fc (Fc fusion)
chain: B6 chain with T14P, E44G, R45L, A75S, V79L, K87R, P88A, I93V, Q118L
notes: also called 5H2-mIgG Fc; 5H2-mlgG2a Fc; not shown: mouse IgG2a Fc
Kd [20]: 3.32 nM | koff [20]: 0.000417 s⁻¹ | kon [20]: 126000 M⁻¹ s⁻¹

B10: VHH clone 4 (phage-displayed) (VHH)
VHH: EVQLVESGGGLVQPGGSLRLSCAASGQFFSLNYLAWYRQAPGSQRELIALVSSGGSTQYGDSVKGRFTISRDNAKNTVYLQMASLKPEDTAVYYCNLHTYDFLGRDYWGQGTQVTISS
notes: Tested as phage supernatant, detected with PE anti-M13; also called Clone ID 4
binding result [22]: binds

B11: VHH clone 11 (phage-displayed) (VHH)
VHH: QVQLVESGGGLVQPGGSLRLSCAASGNILSINYMGWYRQAPGKERELVAIITRGGSTTYAPSLKGRFTISGDNAKDTVYLQMNSLQPEDTAVYYCNFRINFGILGGLRDYWGQGTQVTVSS
notes: Tested as phage supernatant, detected with PE anti-M13; also called Clone ID 11
binding result [22]: binds

B12: 1-hIgG1Fc (Fc fusion)
chain: EVQLVGSGGGLVQPGGSLRLSCAASGSILNLMTTGWYRQAPGKQRDLVATITFGGTTNYADSVKGRFTISRDKSKNTAYLQMDNLKPEDTAVYFCYADVIVGFQDRRVAWDAGTQVTVSS
notes: VHH-hIgG1Fc recombinant antibody; also called 1-hlgG1Fc; VHH-hIgG1Fc recombinant antibody of clone 1; not shown: human IgG1 Fc (hIgG1Fc)
absorbance at 450 nm [1]: 2.36 | absorbance at 450 nm (Claudin 18.2 VLP [2]): 2.66 | absorbance at 450 nm [3]: 0.1 | absorbance at 450 nm (Claudin 18.2 VLP [4]): 0.293 | absorbance at 450 nm [5]: 1.08 | absorbance at 450 nm (Claudin 18.2 VLP [6]): 2.13 | absorbance at 450 nm [7]: 0.07 | absorbance at 450 nm (Claudin 18.2 VLP [8]): 0.271 | absorbance at 450 nm [9]: 0.066 | absorbance at 450 nm (Claudin 18.2 VLP [10]): 0.282 | absorbance at 450 nm [12]: 0.06 | absorbance at 450 nm (Claudin 18.2 VLP [13]): 0.275 | absorbance at 450 nm [14]: 0.473 | absorbance at 450 nm (Claudin 18.2 VLP [15]): 1.35 | absorbance at 450 nm [16]: 0.216 | absorbance at 450 nm (Claudin 18.2 VLP [17]): 0.585 | EC50 [23]: 200 nM | EC50 [18]: 15.7 µg/mL and 196 nM | EC50 (Claudin 18.2 VLP [19]): 1.46 µg/mL and 18.3 nM

B13: 18-mIgG2aFc (Fc fusion)
chain: QVQLVESGGGLVQPGGSLRLSCAASGSILNLMTTGWYRQAPGKQRDLVATITFGGTTNYADAVKGRFTISRDNAKNTVYLQMNNLEPEDTAVYFCYLDYIFGFGDRRVAWDQGTQVTVSS
notes: Fusion antibody anti-Claudin18.2 VHH-mIgG2aFc; not shown: mouse IgG2a Fc (mIgG2aFc)
EC50 [21]: 0.06 nM

B14: VHH clone 14 (phage-displayed) (VHH)
VHH: EVQLVESGGGLVQPGGSLRLSCAASGSLFSIITMGWYRQAPGKQRELVATVTRGGRLNYGDSVKGRFTISSGNVENTLDLQMNNLKPEDTAVYYCNAILESGNFWGRGTQVTVSS
notes: Tested as phage supernatant, detected with PE anti-M13; also called Clone ID 14
binding result [22]: binds
